In paper PMC9068512:

Target: modified calcium-permeable rat GluA2flip subunit with Q586 at the Q/R site (GluA2*), as the GluA2 portion of the GluA2–γ2 fusion (rat) (UniProt P19491)
Assay: cryo-EM structure; purified GluA2–γ2 fusion in 150 mM NaCl, 20 mM Tris-HCl pH 8.0, 0.05% digitonin, supplemented with 20 µM Glu and 100 µM CTZ; seven LBD–TMD reconstructions (NNNN, GNNN, GNGN1, GNGN2, GGNN, GGGN, GGGG)

- stoichiometry N: 4
Substance: modified calcium-permeable rat GluA2flip subunit with Q586 at the Q/R site (GluA2*), as the GluA2 portion of the GluA2–γ2 fusion (from UniProt P19491-2 22-883) (receptor)
